# Experimental data reported in IntAct's records for PubMed 15350218.
# B1: Synaptotagmin-2 (Rattus norvegicus (Rat)), P29101 (parent)
# chain: MRNIFKRNQEPIVAPATTTATMPLAPAAPADNSTESTGTGESQEDMFAKLKDKFFNEINKIPLPPWALIAMAVVAGLLLLTCCFCICKKCCCKKKKNKKEKGKGMKNAMNMKDMKGGQDDDDAETGLTEGEGEGEEEKEPENLGKLQFSLDYDFQANQLTVGVLQAAELPALDMGGTSDPYVKVFLLPDKKKKYETKVHRKTLNPAFNETFTFKVPYQELGGKTLVMAIYDFDRFSKHDIIGEVKVPMNTVDLGQPIEEWRDLQGGEKEEPEKLGDICTSLRYVPTAGKLTVCILEAKNLKKMDVGGLSDPYVKIHLMQNGKRLKKKKTTVKKKTLNPYFNESFSFEIPFEQIQKVQVVVTVLDYDKLGKNEAIGKIFVGSNATGTELRHWSDMLANPRRPIAQWHSLKPEEEVDALLGKNK
# Variants of: B1
# Conditions: with wnk1_rat Wnk1, Q9JIH7
# Sequence of wnk1_rat Wnk1, Q9JIH7 (Q9JIH7 whole entry): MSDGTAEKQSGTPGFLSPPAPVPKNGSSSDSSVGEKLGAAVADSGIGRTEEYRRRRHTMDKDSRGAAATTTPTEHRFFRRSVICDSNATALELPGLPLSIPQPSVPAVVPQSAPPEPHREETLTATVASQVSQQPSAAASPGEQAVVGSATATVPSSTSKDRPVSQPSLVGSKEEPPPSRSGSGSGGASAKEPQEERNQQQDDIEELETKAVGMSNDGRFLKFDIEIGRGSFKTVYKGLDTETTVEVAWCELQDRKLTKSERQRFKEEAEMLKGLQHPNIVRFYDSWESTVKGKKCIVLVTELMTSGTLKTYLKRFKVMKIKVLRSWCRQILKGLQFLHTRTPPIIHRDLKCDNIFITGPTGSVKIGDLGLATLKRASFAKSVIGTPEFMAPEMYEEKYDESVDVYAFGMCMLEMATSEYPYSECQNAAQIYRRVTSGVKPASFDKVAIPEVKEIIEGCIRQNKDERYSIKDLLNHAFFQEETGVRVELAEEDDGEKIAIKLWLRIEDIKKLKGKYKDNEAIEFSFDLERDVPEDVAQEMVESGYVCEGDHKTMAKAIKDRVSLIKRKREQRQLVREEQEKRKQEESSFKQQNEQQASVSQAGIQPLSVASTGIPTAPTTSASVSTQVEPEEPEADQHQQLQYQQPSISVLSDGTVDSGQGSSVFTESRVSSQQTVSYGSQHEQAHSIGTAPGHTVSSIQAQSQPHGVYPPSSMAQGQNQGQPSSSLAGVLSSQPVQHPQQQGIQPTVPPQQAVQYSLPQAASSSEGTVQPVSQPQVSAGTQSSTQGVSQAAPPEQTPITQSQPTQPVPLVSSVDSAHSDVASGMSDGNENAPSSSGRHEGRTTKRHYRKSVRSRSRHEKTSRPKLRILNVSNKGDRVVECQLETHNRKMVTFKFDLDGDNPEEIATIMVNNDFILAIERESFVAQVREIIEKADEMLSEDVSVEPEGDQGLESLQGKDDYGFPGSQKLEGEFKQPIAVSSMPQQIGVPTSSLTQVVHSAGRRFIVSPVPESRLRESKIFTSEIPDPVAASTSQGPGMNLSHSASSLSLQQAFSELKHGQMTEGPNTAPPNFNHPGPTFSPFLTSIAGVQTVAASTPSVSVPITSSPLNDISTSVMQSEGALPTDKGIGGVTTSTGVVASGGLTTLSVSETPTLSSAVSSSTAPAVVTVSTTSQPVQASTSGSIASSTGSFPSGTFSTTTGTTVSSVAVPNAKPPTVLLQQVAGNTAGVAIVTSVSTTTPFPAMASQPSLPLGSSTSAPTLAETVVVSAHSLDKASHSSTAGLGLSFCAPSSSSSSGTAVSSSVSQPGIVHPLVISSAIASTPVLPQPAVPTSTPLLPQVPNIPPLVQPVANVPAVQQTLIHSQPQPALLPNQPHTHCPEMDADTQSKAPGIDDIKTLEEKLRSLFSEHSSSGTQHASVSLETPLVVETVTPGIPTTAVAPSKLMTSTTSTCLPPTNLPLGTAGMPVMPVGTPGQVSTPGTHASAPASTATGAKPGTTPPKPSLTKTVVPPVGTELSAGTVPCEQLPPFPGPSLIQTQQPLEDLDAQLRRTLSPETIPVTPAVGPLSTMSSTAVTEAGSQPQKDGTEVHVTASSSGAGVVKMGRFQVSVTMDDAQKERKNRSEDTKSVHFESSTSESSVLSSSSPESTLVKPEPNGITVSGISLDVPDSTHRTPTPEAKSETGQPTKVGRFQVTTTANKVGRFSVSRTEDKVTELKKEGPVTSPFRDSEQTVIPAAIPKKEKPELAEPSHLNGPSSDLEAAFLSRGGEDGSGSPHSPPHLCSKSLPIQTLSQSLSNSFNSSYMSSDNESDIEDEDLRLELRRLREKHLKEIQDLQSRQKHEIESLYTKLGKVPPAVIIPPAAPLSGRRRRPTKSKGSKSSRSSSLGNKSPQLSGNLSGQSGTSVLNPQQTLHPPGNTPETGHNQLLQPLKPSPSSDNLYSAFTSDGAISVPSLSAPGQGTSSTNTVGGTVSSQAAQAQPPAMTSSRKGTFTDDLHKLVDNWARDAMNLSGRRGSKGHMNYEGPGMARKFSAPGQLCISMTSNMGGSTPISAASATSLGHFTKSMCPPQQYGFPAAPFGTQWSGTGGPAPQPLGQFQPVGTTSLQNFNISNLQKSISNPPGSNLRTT
row,effect of a mutation on the interaction,Variant
1,decreasing interaction,D231S

# Variants of: B1
# Conditions: with wnk1_rat Wnk1, Q9JIH7
# Remark: another data set of the same source
row,effect of a mutation on the interaction,Variant
1,decreasing interaction,D310N
